The data set deals with the molecule itself. Description: SEC-MALS; Superdex 200 HR10/300 in series with Wyatt Dawn8+ and Optilab T-rEX, 22°C; 100 µl, 100 µg protein; 150 mM NaCl with 50 mM HEPES or 50 mM Tris-Cl, pH 7.4; 0.75 ml/min.

B1: Histag-FGF20 (recombinant human fibroblast growth factor 20) (natural protein)
chain: not shown
notes: Fibroblast growth factor 20, human; Made in E. coli, so not glycosylated; source: Escherichia coli, expressed and purified as described [37]
Take B1: the “stoichiometry N” value amounted to 2.

These data come from publication PMC4821243, “Heparin binding preference and structures in the fibroblast growth factor family parallel their evolutionary diversification” (Open Biology, 2016).
